According to patent US20200255474A1:

Biological target: HA-tagged PHB2 alanine mutant at Ser39 (S39A) (human) (UniProt Q99623)
Assay: anti-HA IP of nuclear extracts of transfected SK-BR-3 cells after 1 µM stERAP, immunoblot

reduction rate of binding against WT: 82%
Substance: NcoR, O75376 1-2440
